Measured values from article PMC5761276.
pKd: −log10 of the molar value.

What was measured:
[1] = target: LAT-FYFF (monovalent LAT1Y, residue 48-233), phosphorylated (UniProt O43561); test: single-molecule dwell time analysis
[2] = target: LAT-FYFF (monovalent LAT1Y, residue 48-233), phosphorylated (UniProt O43561); test: ITC

Sequence of Grb2-Alexa Fluor 647 (P62993 whole entry): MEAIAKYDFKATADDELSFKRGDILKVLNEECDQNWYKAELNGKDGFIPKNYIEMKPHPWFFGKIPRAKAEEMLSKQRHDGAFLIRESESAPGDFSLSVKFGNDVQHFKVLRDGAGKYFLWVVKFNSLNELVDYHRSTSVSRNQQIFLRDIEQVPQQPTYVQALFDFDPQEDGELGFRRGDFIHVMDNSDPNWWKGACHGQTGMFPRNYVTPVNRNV

## Grb2-Alexa Fluor 647 (from UniProt P62993 1-217) (natural protein)
[1]
  koff: 3.4 s⁻¹
  relative on-rate (against LAT-FFFY:Grb2 = 1): 1.25
[2]
  pKd: 6.33
  dH: -15 kcal/mol
